# Paper PMC8341435
# Key:
# [1] = molecular target: HIV-1 CAP256 SU gp140 NFL, mammalian cell-produced (HEK293) (HIV-1 (CAP256 SU virus)); assay: SEC
# [2] = molecular target: HIV-1 CAP256 SU gp140 NFL, mammalian cell-produced (HEK293) (HIV-1 (CAP256 SU virus)); assay: native gel or EMSA; BN-PAGE of the pooled trimer fractions on 4-12% NativePAGE Bis-Tris gels, Coomassie-stained
# [3] = molecular target: HIV-1 CAP256 SU gp140 NFL, plant-produced (Nicotiana benthamiana) (HIV-1 (CAP256 SU virus)); assay: SEC
substance,measurement,setting,value
"HIV-1 CAP256 SU gp140 NFL, mammalian cell-produced (HEK293) (domain or fragment)",stoichiometry N,[1],3
same,stoichiometry N,[2],3
"HIV-1 CAP256 SU gp140 NFL, plant-produced (Nicotiana benthamiana) (domain or fragment)",stoichiometry N,[3],3
